Experimental findings from paper PMC2364237 are described below.

For the assay, the target named is GST-Grb2(SH2) SH2 domain (UniProt P62993). Put plainly: GST-Grb2(SH2) pull-down, anti-HA blot. To be noted: reference: HA-ShcWT; sites Y317.

In the case of “HA-tagged Shc (52 kDa isoform) (from UniProt P29353-2) HA-ShcY317F”, the “binding against the reference” value was “weaker”.
